In patent publication US20230074277A1 (BUEHLMANN LABORATORIES, published 2023):

Biological target: the molecule itself
Test: size exclusion chromatography, buffer A + 2 mM CaCl2
From the text: FIG. 9: Site-directed mutagenesis of the SEQ-ID NO:3 fusion protein and its consequences. A previously described mutation (EP3248015 A1) that impairs heterotetramerization of S100A8/S100A9, namely E78A in the S100A9 polypeptide chain, was introduced into the fusion protein. This E78A mutant remains monomeric, even in the presence of CaCl₂.
Site directed mutagenesis was used to introduce the mutation E78A in the S100A9 chain (see EP3248015 A1) of the fusion protein (SEQ ID NO:3). In endogenous calprotectin, this mutation abrogates […] (Leukert N et al. Calcium-dependent tetramer formation of S100A8 and S100A9 is essential for biological activity (2006). J. Mol. Biol. 359: 961-972). Similary, introduction of this mutation into the fusion protein (SEQ-ID NO:3) prevented CaCl₂) dependent dimerization. The S200 size exclusion chromatography of the mutated and non-mutated fusion proteins (SEQ ID NO:3) in buffer A containing 2 mM CaCl₂) was performed as described in Examples 1 and 3 (FIG. 9).

B1: recombinant fusion polypeptide (SEQ ID NO:3) (other)
chain: MHHHHHHLEVLFQGPMTCKMSQLERNIETIINTFHQYSVKLGHPDTLNQGEFKELVRKDLQNFLKKENKNEKVIEHIMEDLDTNADKQLSFEEFIMLMARLTWASHEKMHEGDEGPGHHHKPGLGEGTPLEVLFQGPMLTELEKALNSIIDVYHKYSLIKGNFHAVYRDDLKKLLETECPQYIRKKGADVWFKELDINTDGAVNFQEFLILVIKMGVAAHKKSHEESHKE
notes: Single polypeptide, monomer 26.8 kDa, equal to an S100A8/S100A9 heterodimer; It dimerizes in 2 mM CaCl2, equal to the heterotetramer; also called rCAL (Mrp14-Mrp8 fusion)
- binding result: binds
